Laboratory results taken from US5654398, “Compositions and methods for inhibiting replication of human immunodeficiency virus-1” (The Regents of the University of California).

Molecular target: Rev34-50 peptide I (free N- and C-termini) (HIV-1)
Experiment: EMSA; apparent nonspecific Kd with tRNA, 4 C
Conditions: protein: synthetic; tags: synthetic peptide, unmodified termini; label: 32P; stem-loop with internal bulge

GGCUGGUAUCGGCGCAGCGUCAAUGACGCUGACGGUAGAGGCCAGCC (ssRNA, [10,38]) [RRE IIB C46-G74 mutant]
Kd: 3000 nM
